Values of other authors in publication PMC12005733.

Molecular target: Calbindin D9k C-terminal split part C-terminal half (Bos taurus) (UniProt P02633)

Calbindin D9k N-terminal split part N-terminal half (from UniProt P02633)
Kd: 3 pM
